What was measured:
Human CD48 on cells = biological target: T1, Human CD48 on cells (human, UniProt P09326 27-220); assay: cell-based or functional assay
T1 sequence: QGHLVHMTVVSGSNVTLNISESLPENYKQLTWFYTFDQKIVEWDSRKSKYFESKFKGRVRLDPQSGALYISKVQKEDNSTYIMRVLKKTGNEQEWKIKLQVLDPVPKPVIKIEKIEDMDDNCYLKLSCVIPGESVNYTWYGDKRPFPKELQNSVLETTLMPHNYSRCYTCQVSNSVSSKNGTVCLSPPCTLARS

[1] = biological target: T2, Non-mutated CD48-mouse IgG fusion construct (human; mouse, UniProt P09326 27-220, limits assumed); assay: ELISA: 1:10 diluted HEK293T supernatant of the CD48-mouse IgG construct; antibody at 25, 250 and 500 ng/mL; detection with goat anti-mouse IgG (H+L) HRP; Mean OD450-570
T2 construct: Used as HEK293T culture supernatant in the ELISA; also called hCD48EC:mouse-Ig; human CD48-mouse IgG1 fusion protein
T2 sequence: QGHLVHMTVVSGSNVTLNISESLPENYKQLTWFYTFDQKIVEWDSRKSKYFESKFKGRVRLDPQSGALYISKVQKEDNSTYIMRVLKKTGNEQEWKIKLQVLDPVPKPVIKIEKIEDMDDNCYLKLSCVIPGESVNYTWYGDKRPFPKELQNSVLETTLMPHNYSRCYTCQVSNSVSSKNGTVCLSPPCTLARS
Method: (§1) Applying the 3D structure models of the CD48 protein, three exposed loops of the protein were selected and changed by site directed mutagenesis utilizing PCR. Antibody binding epitopes were determined by ELISA. […] The template construct, hCD48EC:mouse-Ig originates from the expression plasmid generated to express the human CD48-mouse IgG1 fusion protein for immunization amplified from the commercial vector “Trueclone, CD48 (untagged)-Human CD48 molecule” (Origene, NM_001778.2). Primer for the site directed mutagenesis were synthesized by Microsynth (Switzerland).

Construct #2250 = biological target: T3, Construct #2250 (human; mouse, UniProt P09326 27-220, limits assumed); assay: as above
T3 construct: also called hCD48EC:mouse-Ig with KKTGNE modified into KKDASG
T3 chain: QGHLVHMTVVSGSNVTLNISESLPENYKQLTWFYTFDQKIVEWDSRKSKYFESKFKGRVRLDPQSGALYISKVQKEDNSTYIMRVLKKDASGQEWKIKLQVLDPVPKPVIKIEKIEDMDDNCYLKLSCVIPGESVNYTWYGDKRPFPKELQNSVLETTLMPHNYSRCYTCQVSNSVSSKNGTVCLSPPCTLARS
Method: as §1

Construct #2248 = biological target: T4, Construct #2248 (human; mouse, UniProt P09326 27-220, limits assumed); assay: as above
T4 construct: also called hCD48EC:mouse-Ig with ENYKQ modified into GSSKQ
T4 chain: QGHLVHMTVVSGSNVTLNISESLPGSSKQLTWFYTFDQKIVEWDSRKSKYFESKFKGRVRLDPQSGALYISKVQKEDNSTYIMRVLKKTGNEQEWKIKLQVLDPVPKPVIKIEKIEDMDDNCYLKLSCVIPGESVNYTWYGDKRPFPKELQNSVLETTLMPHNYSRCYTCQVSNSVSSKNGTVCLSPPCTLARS
Method: as §1

2249 = biological target: T5, 2249 (Homo sapiens, UniProt P09326); assay: as above
T5 chain: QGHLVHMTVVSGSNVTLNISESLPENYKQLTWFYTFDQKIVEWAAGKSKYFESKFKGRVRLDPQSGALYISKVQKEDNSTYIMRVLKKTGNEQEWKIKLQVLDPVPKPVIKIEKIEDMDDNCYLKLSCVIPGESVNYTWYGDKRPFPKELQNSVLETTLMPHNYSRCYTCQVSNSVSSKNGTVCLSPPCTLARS
Method: as §1

Span (Amax), KMS-21-BM, with anti-human Fc-VC-MMAE (Human CD48 on cells): 92 | Span (Amax), KMS-27, with anti-human Fc-VC-MMAE (Human CD48 on cells): 93.4 | Span (Amax), NCI-H929, with anti-human Fc-VC-MMAE (Human CD48 on cells): 100 | EC50 (read off the curve) [1]: ~0.02 µg/mL | EC50 (read off the curve) (Construct #2250): ~0.02 µg/mL | binding result (Construct #2248): no binding (tested: 500 ng/mL) | EC50 (read off the curve) 2249: ~0.03 µg/mL
B1: humanized CD48A (antibody, human IgG1, kappa)
heavy: not shown
light: EIVLTQSPDFQSVTPKEKVTITCRASQSIGSNIHWYQQKPDQSPKLLIKYTSESISGVPSRFSGSGSGTDFTLTINSLEAEDAATYYCQQSNSWPLTFGGGTKVEIKRTVAAPSVFIFPPSDEQLKSGTASVVCLLNNFYPREAKVQWKVDNALQSGNSQESVTEQDSKDSTYSLSSTLTLSKADYEKHKVYACEVTHQGLSSPVTKSFNRGEC
notes: also called humanized MEM102 antibody; anti-CD48A
IC50 (nM), cell proliferation/survival (CellTiter-Glo), KMS-21-BM, with anti-human Fc-VC-MMAE (Human CD48 on cells): 0.016 nM | IC50 (nM), cell proliferation/survival (CellTiter-Glo), KMS-27, with anti-human Fc-VC-MMAE (Human CD48 on cells): 0.001 nM | IC50 (nM), cell proliferation/survival (CellTiter-Glo), NCI-H929, with anti-human Fc-VC-MMAE (Human CD48 on cells): 0.007 nM

Reference: US20220162308A1 (Novartis, published 2022)
